One block for each binder: values may come before it.
Key:
human TIGIT [1] = biological target: T1, human TIGIT (human, UniProt Q495A1 22-141); assay: BLI (Octet), antibody captured on anti-human Fc sensors
T1 construct: Expressed in HEK-293 cells and secreted as soluble protein; also called hTIGIT; monomeric wild type human TIGIT; not shown: His tag (purified on Ni-NTA, called 'human TIGIT HIS')
T1 sequence: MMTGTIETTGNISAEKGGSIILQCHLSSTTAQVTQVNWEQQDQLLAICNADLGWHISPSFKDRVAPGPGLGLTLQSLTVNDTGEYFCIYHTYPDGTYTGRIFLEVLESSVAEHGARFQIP
Experimental: (§1) To identify the epitope for MAB10 binding to human TIGIT, 18 alanine single point mutations were made. Proteins were expressed in HEK-293 cells, secreted as soluble protein, purified on Ni-NTA resin, and characterized by SDS-PAGE. Binding was assessed by Bio-Layer Interferometry (BLI) using the Octet platform. MAB10 was captured on anti-human Fc sensors, washed, and exposed to either monomeric wild type human TIGIT or to one of a selection of point mutants.
To identify the epitope for MAB2, MAB15, and MAB21 binding to human TIGIT, binding to 7 alanine single point mutations was assessed using BLI as described in the preceding paragraph.

human TIGIT [2] = biological target: T1, human TIGIT; assay: BLI (Octet), MAB10 captured on anti-human Fc sensors, monomeric wild type human TIGIT in solution
Experimental: as §1

human TIGIT [3] = biological target: T1, human TIGIT; assay: complex formation, size exclusion chromatography and crystallisation
Experimental: The binding epitope of MAB10 was also identified through crystallographic studies. MAB10 Fab was complexed with human TIGIT, purified by size exclusion chromatography, and concentrated to 10 mg/ml. Crystals were grown out of 14% PEG4000, 0.1M MES pH 6, 10 mM β-nicotinamide adenine dinucleotide hydrate, 0.5% n-dodecyl-β-D-maltoside. X-ray data were collected at Argonne National Laboratories (GM/CA CAT 23ID-D) and processed using CCP4 (Collaborative Computational Project No. 4, Software for Macromolecular X-Ray Crystallography) and Phenix (Python-based Hierarchical ENvironment for Integrated Xtallography). TIGIT residues within a contact distance of 3.8 Å from the heavy and light chain were considered part of the binding epitope and include T55, Q56, L65, D72, L73, H76, I77, S78, P79 and H111.

B1: MAB2 (antibody, human IgG4 S228P, kappa, V domains shown)
VH: QLQLQESGPGLVKPSETLSLTCTVSGGSISSSKYYWGWIRQPPGKGLEWIGSIYYSGSTFYNPSLKSRVTISVDTSKNQFSLKLSSVTAADTAVYYCARDANYYGSAWAFDPWGQGTLVTVSS
VL: EIVLTQSPATLSLSPGERATLSCRASQSVSSYLAWYQQKPGQAPRLLIYDASNRATGIPARFSGSGSGTDFTLTISSLEPEDFAVYYCQQHFNLPTFGGGTKVEIKR
notes: also called MAB2-IgG4
binding result (human TIGIT [1]): binds

B2: MAB15 (antibody, human IgG4 S228P, kappa, V domains shown)
VH: QVQLVQSGAEVKKPGASVKVSCKASGYTFREYYMHWVRQAPGQGLEWMGIINPSIGLTSYARKFQGRVTMTRDTSTSTVYMELSSLRSEDTAVYYCARGGRTTWIGAFDIWGQGTMVTVSS
VL: EIVMTQSPATLSVSPGERATLSCRASQSVSSNLAWYQQKPGQAPRLLIYGASTRATGIPARFSGSGSGTEFTLTISSLQSEDFAVYYCQQYVVWPPLTFGGGTKVEIKR
notes: also called MAB15-IgG4
binding result (human TIGIT [1]): binds

B3: MAB10 (antibody, human IgG4 S228P, kappa, V domains shown)
VH: QVQLQESGPGLVKPSQTLSLTCTVSGGSIESGLYYWGWIRQPPGKGLEWIGSIYYSGSTYYNPSLKSRATISVDTSKNQFSLKLSSVTAADTAVYYCARDGVLALNKRSFDIWGQGTMVTVSS
VL: EIVLTQSPGTLSLSPGERATLSCRASQSVSSSYLAWYQQKPGQAPRLLIYGASSRATGIPDRFSGSGSGTDFTLTISRLEPEDFAVYYCQQHTVRPPLTFGGGTKVEIKR
notes: also called MAB10-IgG4; anti-TIGIT antibody MAB10
binding result (human TIGIT [2]): binds

Second part, the binder after the results:

binding result (human TIGIT [3]): binds
B4: MAB10 Fab (Fab, V domains shown)
VH: B3 VH
VL: EIVLTQSPGTLSLSPGERATLSCRASQSVSSSYLAWYQQKPGQAPRLLIYGASSRATGIPDRFSGSGSGTDFTLTISRLEPEDFAVYYCQQHTVRPPLTFGGGTKVEIK
notes: Fab of MAB10 used for crystallography

binding result (human TIGIT [1]): binds
B5: MAB21 (antibody, human IgG4 S228P, kappa, V domains shown)
VH: QVQLVQSGAEVKKPGASVKVSCKASGYTFTSHYMGWVRQAPGQGLEWMGIINPSMGATSYTQKFRGRVTMTRDTSTSTVYMELSSLRSEDTAVYYCARLHVSGSYYPAYLDYWGQGTMVTVSS
VL: EIVMTQSPATLSVSPGERATLSCRASQSVSSNLAWYQQKPGQAPRHLIYGASTRATGIPARFSGSGSGTEFTLTISSLQSEDFAVYYCQQYIVFPWTFGGGTKVEIKR
notes: also called MAB21-IgG4
